In patent US20240392020A1 (JIANGSU HENGRUI PHARMACEUTICALS, published 2024):
Where a chain is given by its changes, count along the chain named. Like-named read-outs stand apart in the source and are kept apart here. Each block holds one binder with its values, some of them ahead of it.

Assays:
[1] = target: T1, B7H3 on the recombinant cell line CT26-B7H3 (UniProt Q5ZPR3 29-534, limits assumed); assay: FACS, CT26-B7H3 cells
T1 construct: whole, on cells
T1 sequence (looked up): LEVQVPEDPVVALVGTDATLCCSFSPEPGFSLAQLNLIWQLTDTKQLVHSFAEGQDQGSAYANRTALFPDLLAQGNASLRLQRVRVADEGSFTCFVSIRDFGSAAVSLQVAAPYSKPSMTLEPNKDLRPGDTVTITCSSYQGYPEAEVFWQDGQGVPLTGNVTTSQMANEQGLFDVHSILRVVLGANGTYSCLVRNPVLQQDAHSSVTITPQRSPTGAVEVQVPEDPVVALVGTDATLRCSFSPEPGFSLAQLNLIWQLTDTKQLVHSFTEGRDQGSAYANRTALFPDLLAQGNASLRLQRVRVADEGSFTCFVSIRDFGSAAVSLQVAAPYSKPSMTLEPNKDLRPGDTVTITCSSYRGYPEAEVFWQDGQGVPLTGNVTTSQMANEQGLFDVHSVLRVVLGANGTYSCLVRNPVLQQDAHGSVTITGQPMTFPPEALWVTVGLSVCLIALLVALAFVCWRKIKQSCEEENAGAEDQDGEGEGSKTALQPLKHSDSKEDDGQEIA

[2] = target: T1, B7H3 on the recombinant cell line …; assay: FACS, CT26-B7H3 cells; remark: listed apart in the source
hPDL1 antigen = target: T2, hPDL1 antigen (human, UniProt Q9NZQ7 19-239, limits assumed); assay: ELISA
T2 construct: bought
T2 sequence (Q9NZQ7 19-239 limits assumed): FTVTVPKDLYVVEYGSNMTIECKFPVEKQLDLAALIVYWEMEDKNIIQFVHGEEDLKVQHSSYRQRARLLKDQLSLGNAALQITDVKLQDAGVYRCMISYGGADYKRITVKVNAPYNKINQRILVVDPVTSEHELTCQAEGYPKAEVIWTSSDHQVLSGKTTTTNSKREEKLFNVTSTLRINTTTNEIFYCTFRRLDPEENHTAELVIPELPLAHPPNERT
Experimental: For an antibody targeting a soluble protein, the binding activity of the antibody against the soluble protein was detected by ELISA. […] After the blocking was completed, the blocking solution was discarded; and the plate was washed 3 times with a PBST buffer (pH 7.4, PBS containing 0.1% tween-20). 100 μL of the antibody solution diluted in a gradient was added to each well, and the mixture was incubated at 37° C. for 1 h. After the incubation was completed, the plate was washed 3 times with PBST. […] The plate was washed 3 times with PBST. […] The reaction was stopped by adding 50 μL of 1 M H₂SO₄ to each well. The absorbance values at 450 nm were read on a microplate reader, the binding curves of the antibodies to an antigen were fitted with software, and the EC₅₀ values were calculated.

B1: V5 (antibody)
heavy: not shown
light: QIVLTQSPAILSASPGEKVTMTCRASSSVSYMNWYQQKPGSSPKPWIYATSNLASGVPARFSVSVSGTSHSLTISRVEAEDAATYYCQQWSSNPLTFGAGTKLELKGIPPKIEALPSDISIDEGKVLTVACAFTGEPTPEVTWSCGGRKIHSQEQGRFHIENTDDLTTLIIMDVQKQDGGLYTLSLGNEFGSDSATVNIHIRSI
- EC50 [1]: 3.2 nM

B2: V6 (antibody)
heavy: not shown
light: B1 light
- EC50 [1]: 4.7 nM

B3: S0 (antibody, human IgG1, kappa)
heavy: not shown
light: DIQMTQSPASLSASVGDRVTITCRASENIFSYLAWYQQKPGKSPKLLVYNTRTLAEGVPSRFSGSGSGTDFSLTISSLQPEDFATYYCQHHYGTPFTFGSGTKLEIKRTVAAPSVFIFPPSDEQLKSGTASVVCLLNNFYPREAKVQWKVDNALQSGNSQESVTEQDSKDSTYSLSSTLTLSKADYEKHKVYACEVTHQGLSSPVTKSFNRGEC
notes: also called SO
- EC50 [1]: 1.01 nM

B4: S3 (antibody)
heavy: not shown
light: DIQMTQSPASLSASVGDRVTITCRASENIFSYLAWYQQKPGKSPKLLVYNTRTLAEGVPSRFSGSGSGTDFSLTISSLQPEDFATYYCQHHYGTPFTFGSGTKLEIKQGSPPCFLRFPRPVRVVSGAEAELKCVVLGEPPPVVVWEKGGQQLAASERLSFPADGAEHGLLLTAALPTDAGVYVCRARNAAGEAYAAAAVTVLEPP
- EC50 [1]: 3.5 nM

B5: V4 (antibody)
heavy: not shown
light: QIVLTQSPAILSASPGEKVTMTCRASSSVSYMNWYQQKPGSSPKPWIYATSNLASGVPARFSVSVSGTSHSLTISRVEAEDAATYYCQQWSSNPLTFGAGTKLELKQGSPPCFLRFPRPVRVVSGAEAELKCVVLGEPPPVVVWEKGGQQLAASERLSFPADGAEHGLLLTAALPTDAGVYVCRARNAAGEAYAAAAVTVLEPP
- EC50 [1]: 2.9 nM

B6: F8 (antibody)
heavy: not shown
light: DTVVTQEPSFSVSPGGTVTLTCGLSSGSVSTSHYPSWYQQTPGQAPRMLIYNTNTRSSGVPDRFSGSILGNKAALTITGAQADDESDYYCAIHVDRDIWVFGGGTKLTVLSGAPRFLTRPKAFVVSVGKDATLSSQIVGNPTPQVSWEKDQQPVAAGARFRLAQDGDLYRLTILDLALGDSGQYVSRARNAIGEAFACVGLQVDAEA
- EC50 [2]: 3.14 nM

B7: F7 (antibody)
heavy: not shown
light: B6 light with R119C, S135C, S186C, C198A
- EC50 [2]: 3.38 nM

B8: F5 (antibody)
heavy: not shown
light: B6 light with S135C, S186C
- EC50 [2]: 1.21 nM

B9: F6 (antibody)
heavy: not shown
light: B6 light with A113C, S135C, S186C, C198A
- EC50 [2]: 2.71 nM

B10: F10 (antibody)
heavy: not shown
light: B6 light with R119C, C198A
- EC50 [2]: 3.94 nM

B11: F9 (antibody)
heavy: not shown
light: B6 light with A113C, C198A
- EC50 [2]: 3.52 nM

B12: S4 (antibody)
heavy: not shown
light: DIQMTQSPASLSASVGDRVTITCRASENIFSYLAWYQQKPGKSPKLLVYNTRTLAEGVPSRFSGSGSGTDFSLTISSLQPEDFATYYCQHHYGTPFTFGSGTKLEIKGIPPKIEALPSDISIDEGKVLTVACAFTGEPTPEVTWSCGGRKIHSQEQGRFHIENTDDLTTLIIMDVQKQDGGLYTLSLGNEFGSDSATVNIHIRSI
- EC50 [1]: 1.96 nM

B13: F1 (antibody)
heavy: not shown
light: DTVVTQEPSFSVSPGGTVTLTCGLSSGSVSTSHYPSWYQQTPGQAPRMLIYNTNTRSSGVPDRFSGSILGNKAALTITGAQADDESDYYCAIHVDRDIWVFGGGTKLTVLGILQPDPPANITVTAVARNPRWLSVTWQDPHSWNSSFYRLRFELRYRAERSKTFTTWMVKDLQHHCVIHDAWSGLRHVVQLRAQEEFGQGEWSEWSPEAMGTPW
- EC50 [1]: 71.6 nM

B14: F2 (antibody)
heavy: not shown
light: DTVVTQEPSFSVSPGGTVTLTCGLSSGSVSTSHYPSWYQQTPGQAPRMLIYNTNTRSSGVPDRFSGSILGNKAALTITGAQADDESDYYCAIHVDRDIWVFGGGTKLTVLFDPVYKVKPNPPHNLSVINSEELSSILKLTWTNPSIKSVIILKYNIQYRTKDASTWSQIPPEDTASTRSSFTVQDLKPFTEYVFRIRCMKEDGKGYWSDWSEEASGIT
- EC50 [1]: 59.3 nM

B15: PL-6 (bispecific antibody, human IgG1, kappa, L234A L235A)
heavy 1: not shown
light 1: DIVLTQSPASLAVSPGQRATITCRASESVSIHGTHLMHWYQQKPGQPPKLLIYAASKLESGVPARFSGSGSGTDFTLTINPVEAEDTANYYCQQSFEDPLTFGQGTKLEIKGGGGSGIPPKIECLPIDISIDEGKCLTVASAFTGEPTPEVTWSTGGRKIHSQEQGRFHIENTDDSTTLTIKDVQKQDGGLYTLTLRNEFGSDSATVNIHIRSI
heavy 2: not shown
light 2: not shown
- EC50 (hPDL1 antigen): 0.8 nM

B28: F11 (antibody)
heavy: not shown
light: DTVVTQEPSFSVSPGGTVTLTCGLSSGSVSTSHYPSWYQQTPGQAPRMLIYNTNTRSSGVPDRFSGSILGNKAALTITGAQADDESDYYCAIHVDRDIWVFGGGTKLTVLQGSPPEFLRFPRPVRVVSGAEAELKCVVLGEPPPVVVWEKGGQQLAASERLSFPADGAEHGLLLTAALPTDAGCYVCRARNAAGEAYAAAAVTVLEPP
- EC50 [2]: 6.15 nM

B29: F15 (antibody)
heavy: not shown
light: B28 light with C136S, C184V, C187S, G194C
- EC50 [2]: 4.44 nM

B30: F14 (antibody)
heavy: not shown
light: B28 light with C136S, C187S
- EC50 [2]: 5.15 nM

B31: F12 (antibody)
heavy: not shown
light: B28 light with C184V, G194C
- EC50 [2]: 8.19 nM

B32: F13 (antibody)
heavy: not shown
light: B28 light with C184V, A196C
- EC50 [2]: 6.08 nM

B33: V1 (antibody)
heavy: not shown
light: QIVLTQSPAILSASPGEKVTMTCRASSSVSYMNWYQQKPGSSPKPWIYATSNLASGVPARFSVSVSGTSHSLTISRVEAEDAATYYCQQWSSNPLTFGAGTKLELKGILQPDPPANITVTAVARNPRWLSVTWQDPHSWNSSFYRLRFELRYRAERSKTFTTWMVKDLQHHCVIHDAWSGLRHVVQLRAQEEFGQGEWSEWSPEAMGTPW
- EC50 [1]: 38.4 nM

B34: V3 (antibody)
heavy: not shown
light: QIVLTQSPAILSASPGEKVTMTCRASSSVSYMNWYQQKPGSSPKPWIYATSNLASGVPARFSVSVSGTSHSLTISRVEAEDAATYYCQQWSSNPLTFGAGTKLELKSGAPRFLTRPKAFVVSVGKDATLSCQIVGNPTPQVSWEKDQQPVAAGARFRLAQDGDLYRLTILDLALGDSGQYVCRARNAIGEAFAAVGLQVDAEA
- EC50 [1]: 3.6 nM

B35: V0 (antibody, human IgG1, lambda)
heavy: not shown
light: QIVLTQSPAILSASPGEKVTMTCRASSSVSYMNWYQQKPGSSPKPWIYATSNLASGVPARFSVSVSGTSHSLTISRVEAEDAATYYCQQWSSNPLTFGAGTKLELKGQPKAAPSVTLFPPSSEELQANKATLVCLISDFYPGAVTVAWKADSSPVKAGVETTTPSKQSNNKYAASSYLSLTPEQWKSHRSYSCQVTHEGSTVEKTVAPTECS
- EC50 [1]: 1.8 nM

The remaining lines, values ahead:

- EC50 (hPDL1 antigen): 0.5 nM
B16: PL-13 (bispecific antibody, human IgG1, kappa, L234A L235A)
heavy 1: not shown
light 1: B15 light 1 with G112R, G113T, G114V, G115A, C136V, A142C
heavy 2: not shown
light 2: not shown

- EC50 (hPDL1 antigen): 1.4 nM
B17: PL-17 (bispecific antibody, human IgG1, kappa, L234A L235A)
heavy 1: not shown
light 1: B15 light 1 with G112R, G113T, G114V, G115A, C136V
heavy 2: not shown
light 2: not shown

- EC50 (hPDL1 antigen): 0.5 nM
B18: PL-12 (bispecific antibody, human IgG1, kappa, L234A L235A)
heavy 1: not shown
light 1: B15 light 1 with G112R, G113T, G114V, G115A
heavy 2: not shown
light 2: not shown

- EC50 (hPDL1 antigen): 1.3 nM
B19: PL-14 (bispecific antibody, human IgG1, kappa, L234A L235A)
heavy 1: not shown
light 1: B15 light 1 with G112R, G113T, G114V, G115A, C136V
heavy 2: not shown
light 2: not shown

- EC50 (hPDL1 antigen): 1.6 nM
B20: PL-18 (bispecific antibody, human IgG1, kappa, L234A L235A)
heavy 1: not shown
light 1: B15 light 1 with G112R, G113T, G114V, G115A
heavy 2: not shown
light 2: not shown

- EC50 (hPDL1 antigen): 1.4 nM
B21: PL-15 (bispecific antibody, human IgG1, kappa, L234A L235A)
heavy 1: not shown
light 1: B15 light 1 with G112R, G113T, G114V, G115A
heavy 2: not shown
light 2: not shown

- EC50 (hPDL1 antigen): 0.6 nM
B22: PL-11 (bispecific antibody, human IgG1, kappa, L234A L235A)
heavy 1: not shown
light 1: B15 light 1 with G112R, G113T, G114V, G115A, C136V
heavy 2: not shown
light 2: not shown

- EC50 (hPDL1 antigen): 1.6 nM
B23: PL-19 (bispecific antibody, human IgG1, kappa, L234A L235A)
heavy 1: not shown
light 1: B15 light 1 with G112R, G113T, G114V, G115A, C136V, A142C
heavy 2: not shown
light 2: not shown

- EC50 (hPDL1 antigen): 0.6 nM
B24: PL-10 (bispecific antibody, human IgG1, kappa, L234A L235A)
heavy 1: not shown
light 1: B15 light 1 with C136V, A142C
heavy 2: not shown
light 2: not shown

- EC50 (hPDL1 antigen): 1.4 nM
B25: PL-8 (bispecific antibody, human IgG1, kappa, L234A L235A)
heavy 1: not shown
light 1: B15 light 1 with C136V
heavy 2: not shown
light 2: not shown

- EC50 (hPDL1 antigen): 0.6 nM
B26: PL-9 (bispecific antibody, human IgG1, kappa, L234A L235A)
heavy 1: not shown
light 1: B15 light 1
heavy 2: not shown
light 2: not shown

- EC50 (hPDL1 antigen): 0.5 nM
B27: PL-7 (bispecific antibody, human IgG1, kappa, L234A L235A)
heavy 1: not shown
light 1: B15 light 1 with C136V, A142C
heavy 2: not shown
light 2: not shown
